A short description of this data set: soluble on expression in E. coli; label from the status in PepcDB or PDB records.
“MSGSHHHHHHSSGIEGRSEVVMENVTAFWEEGFGELFEKAKQNNNNRKTSNGDDSLSFSNFSLLGTPVLKDINFKIERGQLLAVAGSTGAGKTSLLMMIMGELEPSEGKIKHSGRISFCSQFSWIMPGTIKENIIFGVSYDEYRYRSVIKACQLEEDISKFAEKDNIVLGEGGITLSGGQRARISLARAVYKDADLYLLDSPFGYLDVLTEKEIFESCVCKLMANKTRILVTSKMEHLKKADKILILHEGSSYFYGTFSELQNLQPDFSSKLMGCDSFDQFSAERRNSILTETLHRFSLEGDAPVSGGGGSGGGGSGGQMTVKDLTAKYTEGGNAILENISFSISPGQRVGLLGRTGSGKSTLLSAFLRLLNTEGEIQIDGVSWDSITLQQWRKAFGVIPQKVFIFSGTFRKNLDPYEQWSDQEIWKVADEVGLRSVIEQFPGKLDFVLVDGGCVLSHGHKQLMCLARSVLSKAKILLLDQPSAHLDPVTYQIIRRTLKQAFADCTVILCEHRIEAMLECQQFLVIEENKVRQYDSIQKLLNERSLFRQAISPSDRVKLFPHRNSSK”: the “soluble on expression in E. coli” value was “soluble”.

Consider “MSAEASGPAAAAAPSLEAPKPSGLEPGPAAYGLKPLTPNSKYVKLNVGGSLHYTTLRTLTGQDTMLKAMFSGRVEVLTDAGGWVLIDRSGRHFGTILNYLRDGSVPLPESTRELGELLGEARYYLVQGLIEDCQLALQQKRETLSPLCLIPMVTSPREEQQLLASTSKPVVKLLHNRSNNKYSYTSTSDDNLLKNIELFDKLALRFHGRLLFLKDVLGDEICCWSFYGQGRKIAEVCCTSIVYATEKKQTKVEFPEARIFEETLNILIYETPRGPDPALLEATGGAAGAGGAGRGEDEENREHRVRRIHVRRHITHDERPHGQQIVFKDLEHHHHHH”, for which the “soluble on expression in E. coli” value was “not soluble”.

Take “MGSDKIHHHHHHMMQLQVNATEIKTVYEQQLFNGKNFHVFIYNKTESVTGLHQHDYYEFTLVLTGRYYQEINGKRVLLERGDFVFIPVGSNHQSFYEFGATRILNVGISKRFFEQHYLPLLPFCFVASQVYRANSTFLTYIETVIASLNFRGNGLDEFIEVVTFYIINRLRHYREEQVYDDIPQWLKATVEIMHDKTQFGEHALENMVRLSAKSQEYLTRATRRYYSKTPMQIINEIRINFAKKQLEMTNYSVTDIAYEAGYSSPSLFIKTFKKMTSFTPNSYRKRLTEINE”: the “soluble on expression in E. coli” value is “not soluble”.

For “NKDMSFVIRGNFTYSKNKIDNWEQIEQKYAYQNFSGWPYGIQRGYIALGLFRDEADINNSPIQTFGNYEAGDIKYKDVNGDGRIDIDDQVPLSYDNYPRLMYGFGGEFRYKNLTFNILFKGIGKKDFFYTSEDSGFGYYPFLYGETGNVLSIVANSSNRWIPASYSGDPSTENPNARFPRLSYGKNSNNTQKSTFWKANGQYLRLQEISVGYNLKLKAFSKIGVSSIDLQLVGQDLYVWDKIGGLWDPEQTTKNGRAYPIPATYSLQMYINF”, the “soluble on expression in E. coli” value is reported as “not soluble”.

Take “MGSDKIHHHHHHMDSSRSDPMRLMIFGAGYSGKAIGQHFIQQGIPVSGTTRSPAKAKALSDLGIEPLVFDGQRLSDEIIQAMACATHVVQSIAPGSDGDPLLRLTQGALKTWMPKVQWLAYLSTVGVYGDHQGAWVDEDTVCKPVSVRSKERVEAEQAWGRAALAAGVPLSTLRLSGIYGPGRNGLVNMAEGTARRLVKKDQVFNRIRVEDIAAATWFLAGRNEQGIFNITDHEPAPPQDVVAEAARLMEVEPPPEQAFETAELSPMARSFYGENKRVMNAKVRALGFAFAYPDYRVSLSQLWSSGRWRG”: the “soluble on expression in E. coli” value is “not soluble”.

Take “MGSDKIHHHHHHMKFSDIISKLEVTNYSLTQNPNNDPEITGMAAIDEATSGTLSYIEGAKFASFIAKTNASALILPQNEAMQAQAQERGIVWMATPEPRLLFAKAIALFYQPYTPTPEIHPTAVIHPTAKIGNDVYIGPHVVIQPGVEIGNGVIIHPNVVIYPGVKIGDRTILHANCTIEERSQIGADCVIHSGAVIGGEGFGFVPTRTGWYKMEQSGYVVLEDRVDIGCNTTIDRPSVGETRVGYDTKIDNLVQIAHGCQIGAGCAIAAQTGMAGGVKLGNRVILAGQVGIANQAKMGDGSTASAQTGILHDVKPGEVVSGTPAIPHKMYLKIAALYSRLPDMYQAFRQSQRQLEEEGKR”: the “soluble on expression in E. coli” value is “not soluble”.

Consider “GPGSMNPYYAAPPPPPQQQQSRPSVDLDDLFGGPTAANEHKPFHAAPGEPAPPSYDALNGGYSSAPPPAHHAAASEPQQSHNGNISGNQSLYYGAAHQQQQQQQSYGVPAAVPASASPYGMSSPPPAFSSSSSITPGTAPPLQPQPQQQQYGAYPAMPASGMAPPAPPLQQQPPQVYVQPQPQPQPMPGPVHQQQQSFAQNSSSSVSPSGAAAVAGPTAAAGVGSGAASSRSAEEEDRLQLERIIRLRRELELEQEREQRKKEELQTWGCPICTFRNKLNEVKCEMCGSTRPGYTAPASTEPPAQHQQQQHQPRPAATPSQVNAGVTDWQCGMCLAPNEAHAERCKVCYAYRSSGIPVPTASPSGAAANANHNGVVSNTPFTTNWKCSVCGEVNPPSKANCKVCSGFQRNGTAVTDAVPAPSTGSGHGAQATSSADPPLPTVWSCSVCTFENSVSAAVCKACESGQRPRHLAPKRDKEKSASSKQHDSRGSGAKDGGGDGEKKCSSSKSQWPCGTCTFLNPIGRKKCDMCGAKRPESYAAEADTTEARAAAKQEAQDDAEEVAWQDDDSVTECNNCHTTFTFLIRRHHCRLCGYVFCAHCSSYSVPLTMGSLPQRVCVNCYKARLEEEKKTKKARRWLDS”, for which the “soluble on expression in E. coli” value was “soluble”.

Take “MVKFMAIGTPLLKGSIKFLLLGSGELGKEVVIEAQRLGIECIAVDRYQNAPAMQVAHKSYVIDMKDYDALMAIIEREEPDYIVPEIEAINTDALIDAEKMGYTVIPTAEATKITMNRELIRRLAAEKLGLKTAKYEFADSLEELRDAVEKLGLPCVVKPIMSSSGKGQSVVRSEEDIEKAWKIAKEGARGIGNRVIVEEFINFDYEITLLTARTAEGTKFCEPIGHVQIDGDYHESWQPHNMSAELKEQAQDIAKKVTDALGGYGIFGVELFVKGDEVIFSEVSPRPHDTGMVTMITQEMSEFEIHVRAILGLPVSTKLIHPGASHVIKAEINKYAPKYHIEDALKVPNTKLRLFGKPNAKVGRRMGVALAYADSVEKARELAEKCAHAVRIE”: the “soluble on expression in E. coli” value was “soluble”.

Turning to “MSLAKGGKRMRRTLAGIAAVLGLALGQQQVTLFWSGAITGPTSDAGAPYGAAVEDYCKWANERKLVPGVVFNCVVRDDQYNNANTQRFFEEAVDRFKIPVFLSYATGANLQLKPLIQELRIPTIPASMHIELIDPPNNDYIFLPTTSYSEQVVALLEYIAREKKGAKVALVVHPSPFGRAPVEDARKAARELGLQIVDVQEVGSGNLDNTALLKRFEQAGVEYVVHQNVAGPVANILKDAKRLGLKMRHLGAHYTGGPDLIALAGDAAEGFLWATSFYMAHEDTPGIRLQKEIGRKYGRPENFIESVNYTNGMLVASIAVEAIRRAQERFKRITNETVYQAIVGMNGPNAFKPGFAVSTKQGVEIDFTKSEHTGAEGLRILEAKGGRFVPVTEPFTSALFRKVHYGEGHHHHHH”, the “soluble on expression in E. coli” value was “soluble”.

Take “SAAETRNVAGAEAPPPQKRYYRQRAHSNPMADHTLRYPVKPEEMDWSELYPEFFAPLTQNQSHDDPKDKKEKRAQAQVEFADIGCGYGGLLVELSPLFPDTLILGLEIRVKVSDYVQDRIRALRAAPAGGFQNIACLRSNAMKHLPNFFYKGQLTKMFFLFPDPHFKRTKHKWRIISPTLLAEYAYVLRVGGLVYTITDVLELHDWMCTHFEEHPLFERVPLEDLSEDPVVGHLGTSTEEGKKVLRNGGKNFPAIFRRIQDPVLQAVTSQTSLPGH”: the “soluble on expression in E. coli” value is reported as “soluble”.

For the sequence “MAHHHHHHMQDSVLLSEAFDASHRPWPNRPERKKGVSPSGRDFNMTLYRMKGCPYCERVEWLLRYHLVPFEIVEVGPLTTKGFPDQRFVQVPQIGLEAVADPNNPHAAEKSVAYVADSQHIIAAISAPLGFTKQLSDPRIMETRKWMMERFQAAGFLAINSTWRDAYTTYPHVTPSHYYYQNPIFHVVGATALYALAKYKVAPRFAAEESATSGFPSMENSLQRDPSAWLAAELSGFATRLSGGCHQLHGGKEPDIADVEMYGLTRIIDAHPRLRSALHEGPLKEWCAAMEAALQKRTHVTKK”, the “soluble on expression in E. coli” value is reported as “not soluble”.

For the sequence “MKKVLITGFEPFGGDSKNPTEQIAKYFDRKQIGNAMVYGRVLPVSVKRATIELKRYLEEIKPEIVINLGLAPTYSNITVERIAVNIIDARIPDNDGYQPIDEKIEEDAPLAYMATLPVRAITKTLRDNGIPATISYSAGTYLCNYVMFKTLHFSKIEGYPLKAGFIHVPYTPDQVVNKFFLLGKNTPSMCLEAEIKAIELAVKVSLDYLEKDRDDIKIPL”, the “soluble on expression in E. coli” value is reported as “soluble”.

Take “MPIEIERRFLIGNDNWRQYADEPLLLRQGYLSVEKERTVRVRIAGKQAWLTLKGYISEISRSEFEYEIPLADAEKMMETMCPFKMEKWRYPVRWGGSLFEIDVFLGDNAPLVVAEIELPDENADFDRPDWLGREITADGMFTNAYLSRHPFSSWKNAV”: the “soluble on expression in E. coli” value is recorded as “not soluble”.

Turning to “LPEIPIAAPDLLGHGRSPWAAPWTIDANVSALAALLDNQGDGPVVVVGHSFGGAVAMHLAAARPDQVAALVLLDPAVALDGSRVREVVDAMLASPDYLDPAEARAEKATGAWADVDPPVLDAELDEHLVALPNGRYGWRISLPAMVCYWSELARDIVLPPVGTATTLVRAVRASPAYVSDQLLAALDKRLGADFELLDFDCGHMVPQAKPTEVAAVIRSRLGPR”, the “soluble on expression in E. coli” value is “soluble”.

As to “GMLESTKQFLKKYNINDRVLKLYETAMNDIQNQFKILDDIREFNQLKVLNAFQEERISEAHFTNSSGYGYGDIGRDSLDAVYARVFNTESALVRPHFVNGTHALGAALFGNLRPGNTMLSVCGEPYDTLHDVIGITENSNMGSLKEFGINYKQVDLKEDGKPNLEEIEKVLKEDESITLVHIQRSTGYGWRRALLIEDIKSIVDCVKNIRKDIICFVDNCYGEFMDTKEPTDVGADLIAGSLIKNIGGGIAPTGGYLAGTKDCIEKTSYRLTVPGIGGECGSTFGVVRSMYQGLFLAPHISMEALKGAILCSRIMELAGFEVMPKYDEKRSDIIQSIKFNDKDKLIEFCKGIQTGSPIDSFVSCEPWDMPGYTDQVIMAAGAFIQGSSIELSADAPIREPYIAYLQGGLTFDHAKIGILIALSRIVK”, the “soluble on expression in E. coli” value is on record as “soluble”.

On to “VPSPDDTEVTVARLTSMSSAEEPLTAGRDGLLSLLRNGQLPSRGAKAPQRERYQRIVAAAMELASEGGYDAVQMRAIADRAGVALGTVYRYFPSKNHMLVMGLLMVFEGMRSRFEDVAIPGDTPSERILFVLRKNTEVLEKDRPRYEALVRAFMFADASASAELDAFGALMTEMFAKTIGVEQISDDQLNAIRVIGDVWMSSLVSWVAGRISVDEVMAHLGLAVRLVFRRLGG”, for which the “soluble on expression in E. coli” value is given as “not soluble”.

Turning to “MEGGMKRVVLAFGTRPEATKMAPVYLALRGIPGLKPLVLLTGQHREQLRQALSLFGIQEDRNLDVMQERQALPDLAARILPQAARALKEMGADYVLVHGDTLTTFAVAWAAFLEGIPVGHVEAGLRSGNLKEPFPEEANRRLTDVLTDLDFAPTPLAKANLLKEGKREEGILVTGQTGVDAVLLAAKLGRLPEGLPEGPYVTVTMHRRENWPLLSDLAQALKRVAEAFPHLTFVYPVHLNPVVREAVFPVLKGVRNFVLLDPLEYGSMAALMRASLLLVTDSGGLQEEGAALGVPVVVLRNVTERPEGLKAGILKLAGTDPEGVYRVVKGLLENPEELSRMRKAKNPYGDGKAGLMVARGVAWRLGLGPRPEDWLP”, the “soluble on expression in E. coli” value is recorded as “soluble”.

Source of the values: the DeepSol protein solubility set.
